{"source": "paper PMC11352566", "about": "“Recombinant C-Terminal Catalytic Domain of Rat L-Gulono Lactone Oxidase Produced in Bacterial Cells Is Enzymatically Active” (Current Issues in Molecular Biology, 2024)", "proteins": {"B1": {"name": "fGULO (full-length rat GULO, fGULO-His) (Rattus norvegicus) (protein)", "chain": "MVHGYKGVQFQNWAKTYGCSPEVYYQPTSVEEVREVLALAREQKKKVKVVGGGHSPSDIACTDGFMIHMGKMNRVLQVDKEKKQITVEAGILLADLHPQLDEHGLAMSNLGAVSDVTVAGVIGSGTHNTGIKHGILATQVVALTLMTADGEVLECSESRNADVFQAARVHLGCLGIILTVTLQCVPQFHLQETSFPSTLKEVLDNLDSHLKRSEYFRFLWFPHTENVSIIYQDHTNKAPSSASNWFWDYAIGFYLLEFLLWTSTYLPCLVGWINRFFFWMLFNCKKESSNLSHKIFTYECRFKQHVQDWAIPREKTKEALLELKAMLEAHPKVVAHYPVEVRFTRGDDILLSPCFQRDSCYMNIIMYRPYGKDVPRLDYWLAYETIMKKFGGRPHWAKAHNCTQKDFEEMYPTFHKFCDIREKLDPTGMFLNSYLEKVFY"}, "B2": {"name": "cGULO (C-terminal catalytic domain of rat GULO, cGULO-His) (Rattus norvegicus) (protein)", "chain": "NRFFFWMLFNCKKESSNLSHKIFTYECRFKQHVQDWAIPREKTKEALLELKAMLEAHPKVVAHYPVEVRFTRGDDILLSPCFQRDSCYMNIIMYRPYGKDVPRLDYWLAYETIMKKFGGRPHWAKAHNCTQKDFEEMYPTFHKFCDIREKLDPTGMFLNSYLEKVFY", "notes": "C-terminal cytoplasmic (catalytic ALO) domain, 167 residues, lacks 273 N-terminal residues incl"}}, "substrate": "O=C1O[C@H]([C@@H](O)CO)[C@H](O)[C@@H]1O", "assay": "ascorbic acid formation, colorimetric kit; Lineweaver-Burk", "format": "biochemical, Rattus norvegicus", "details": "50 mM potassium phosphate pH 7.0, 50 mM citrate, 1 mM DTT, 10 µM FAD, aerobic (O2), 37 °C"}
{"protein": "B1", "values": [{"measurement": "Km", "value": "53.5 ± 5", "unit": "µM"}]}
{"protein": "B2", "values": [{"measurement": "Km", "value": "42 ± 6.3", "unit": "µM"}]}
